Results published in patent publication US20190241669A1 (published 2019).
Positions count from the first letter of the chain named.

B1: C01_Rd4_6nM_C20 (antibody, V domains shown)
VH: EVQLLESGGGLVQPGGSLRLSCAASGFTFSSYPMSWVRQAPGKGLEWVSAIGGSGGSLPYADSVKGRFTISRDNSKNTLYLQMNSLRAEDTAVYYCARYWPMDSWGQGTLVTVSS
VL: EIVLTQSPGTLSLSPGERATLSCRASQSVSPLYLAWYQQKPGQAPRLLIYDASSRAPGIPDRFSGSGSGTDFTLTISRLEPEDFAVYYCQQYSAFPLTFGQGTKVEIK
notes: IgG
B2: C01_Rd4_6nM_C24 (antibody, V domains shown)
VH: B1 VH
VL: B1 VL with L32E, A94V, F95W
notes: IgG
B3: C01_Rd4_6nM_C26 (antibody, V domains shown)
VH: B1 VH
VL: B1 VL with P31A, F95W
notes: IgG
B4: COMBO_Rd4_0.6nM_C02 (antibody, V domains shown)
VH: B1 VH
VL: B1 VL with Q27I, S28A, P31S, L32T, I49M, S54I, P57T, S93M, A94V, F95W
notes: IgG
B5: COMBO_Rd4_0.6nM_C04 (antibody, V domains shown)
VH: B1 VH with I51H, G52I, L58T, P59Y
VL: B1 VL with P31S, L32T, I49M, S54I, P57T, S93Q, A94S, F95W
notes: IgG
B6: COMBO_Rd4_0.6nM_C05 (antibody, V domains shown)
VH: B1 VH with P33A, S35N, L58T, P59Y, D103S, S104L
VL: B1 VL with P31S, L32T, I49M, S54I, P57T, S93M, A94S, F95W
notes: IgG
B7: COMBO_Rd4_0.6nM_C09 (antibody, V domains shown)
VH: B1 VH with S104I
VL: B1 VL with P31S, L32T, I49M, S54I, P57T, S93Q, A94E, F95W
notes: IgG
B8: COMBO_Rd4_0.6nM_C11 (antibody, V domains shown)
VH: B1 VH with I51A, G52L, L58T, P59Y, D103S, S104L
VL: B1 VL with P31V, L32R, I49M, S54I, P57T, S93G, A94S, F95W, L97I
notes: IgG
B9: COMBO_Rd4_0.6nM_C14 (antibody, V domains shown)
VH: B1 VH with S104I
VL: B1 VL with P31A, I49M, S54I, P57T, S93Y, A94G, F95W
notes: IgG
B10: COMBO_Rd4_0.6nM_C17 (antibody, V domains shown)
VH: B1 VH with S104I
VL: B1 VL with S28G, V29I, P31S, L32T, I49M, S54I, P57T, S93A, A94Y, F95W
notes: IgG
B11: COMBO_Rd4_0.6nM_C19 (antibody, V domains shown)
VH: B1 VH
VL: B1 VL with P31A, L32V, I49M, S54I, P57T, S93R, F95W
notes: IgG
B12: COMBO_Rd4_0.6nM_C20 (antibody, V domains shown)
VH: B1 VH
VL: B1 VL with P31Y, I49M, S54I, P57T, S93M, A94E, F95W
notes: IgG
B13: COMBO_Rd4_0.6nM_C23 (antibody, V domains shown)
VH: B1 VH with I51L, G52F, L58T, P59Y
VL: B1 VL with A25P, S26R, P31S, L32S, I49M, S54I, P57T, S93Q, A94D, F95W
notes: IgG
B14: COMBO_Rd4_0.6nM_C30 (antibody, V domains shown)
VH: B1 VH with L58T, P59Y
VL: B1 VL with P31Y, L32M, S54I, P57T, S93K, A94S, F95W
notes: IgG

Experiments:
Human BCMA (human) = Human BCMA (human) (UniProt Q02223); assay: SPR, IgG on chip, huBCMA analyte
cynomolgus monkey BCMA = target: T1, cynomolgus monkey BCMA (cynomolgus monkey, UniProt A0A2K5UD97 1-53); assay: SPR, IgG on chip, cyBCMA analyte
T1 construct: Soluble analyte in SPR; construct not described; also called cyBCMA; Cyno BCMA
T1 sequence (A0A2K5UD97 entry or part of it): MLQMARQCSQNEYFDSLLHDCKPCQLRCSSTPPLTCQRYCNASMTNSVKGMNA

Binder	Kd (Human BCMA (human))	koff (Human BCMA (human))	kon (Human BCMA (human))	Kd (cynomolgus monkey BCMA)	koff (cynomolgus monkey BCMA)	kon (cynomolgus monkey BCMA)
B1	0.459 nM	0.00276 s⁻¹	6.02e+06 M⁻¹ s⁻¹	1.74 nM	0.00625 s⁻¹	3.6e+06 M⁻¹ s⁻¹
B2	0.467 nM	0.00348 s⁻¹	7.47e+06 M⁻¹ s⁻¹	0.281 nM	0.000891 s⁻¹	3.17e+06 M⁻¹ s⁻¹
B3	0.09 nM	0.00136 s⁻¹	1.5e+07 M⁻¹ s⁻¹	0.419 nM	0.00199 s⁻¹	4.75e+06 M⁻¹ s⁻¹
B4	0.022 nM	0.000185 s⁻¹	8.57e+06 M⁻¹ s⁻¹	0.164 nM	0.000494 s⁻¹	3.01e+06 M⁻¹ s⁻¹
B5	0.015 nM	0.000158 s⁻¹	1.07e+07 M⁻¹ s⁻¹	0.039 nM	0.000137 s⁻¹	3.52e+06 M⁻¹ s⁻¹
B6	0.115 nM	0.000497 s⁻¹	4.32e+06 M⁻¹ s⁻¹	0.886 nM	0.00172 s⁻¹	1.94e+06 M⁻¹ s⁻¹
B7	0.031 nM	0.000319 s⁻¹	1.04e+07 M⁻¹ s⁻¹	0.092 nM	0.000346 s⁻¹	3.77e+06 M⁻¹ s⁻¹
B8	0.207 nM	0.00106 s⁻¹	5.11e+06 M⁻¹ s⁻¹	1.92 nM	0.00423 s⁻¹	2.2e+06 M⁻¹ s⁻¹
B9	0.038 nM	0.000328 s⁻¹	8.66e+06 M⁻¹ s⁻¹	0.185 nM	0.000645 s⁻¹	3.48e+06 M⁻¹ s⁻¹
B10	0.092 nM	0.000801 s⁻¹	8.68e+06 M⁻¹ s⁻¹	0.33 nM	0.00101 s⁻¹	3.06e+06 M⁻¹ s⁻¹
B11	0.02 nM	0.000155 s⁻¹	7.86e+06 M⁻¹ s⁻¹	0.336 nM	0.000979 s⁻¹	2.92e+06 M⁻¹ s⁻¹
B12	0.019 nM	0.000146 s⁻¹	7.65e+06 M⁻¹ s⁻¹	0.092 nM	0.000284 s⁻¹	3.09e+06 M⁻¹ s⁻¹
B13	0.028 nM	0.00021 s⁻¹	7.39e+06 M⁻¹ s⁻¹	0.189 nM	0.000531 s⁻¹	2.81e+06 M⁻¹ s⁻¹
B14	0.065 nM	0.000282 s⁻¹	4.35e+06 M⁻¹ s⁻¹	0.481 nM	0.000808 s⁻¹	1.68e+06 M⁻¹ s⁻¹
